Measurements: article PMC11584738

Molecular target: His-GST-TRP (without signal peptide) (Verticillium dahliae strain V991)
Assay: MST

- Kd: 1.79 µM
Substance: GST-CTL1 (without signal peptide) (natural protein)
